Results taken from paper PMC4852379.

What was measured:
[1] = target: antibody 5J8, FA variant (Q295F/Y296A), EAS-stabilized (human); assay: BLI
[2] = target: antibody 5J8, wild type (human IgG1 monoclonal antibody) (human); assay: BLI

Kd [1]	Kd [2]	Substance
1000 nM		Fc gamma receptor IIIa (FcγRIIIa), recombinant (from UniProt P08637 17-208)
	270 nM	Fc gamma receptor IIa (FcγRIIa), recombinant (from UniProt P12318 34-217)
